“Also recorded” adds a separate entry of the source.
Assays:
[1] = anti-ACE2 immunofluorescence of cornea of ACE2-KO mice after NaOH treatment and topical administration; format: in vivo, mouse; settings: cornea treated with NaOH for 30 s, then topical administration
Procedure: The corneas of ACE2-KO mice were treated with NaOH for 30 s and then were topically administered ACE2 1-618-ABD. The cornea were subjected to immunofluorescence using anti-ACE2 antibodies. (See FIG. 13).

[2] = ACE2 activity in eyes of ACE2-knockout mice after topical corneal application; format: in vivo, mouse; settings: ACE2-KO mice, after one hour; for ACE2 activity in eyes: topical to cornea, 5 μg/μl in PBS or in 0.5% DMSO in PBS, vs untreated
Procedure: ACE2 activity was assessed in eyes isolated from ACE2-deficient mice.

[3] = duration of action in vivo after one injection (enzymatic activity in plasma, blood pressure); settings: determined by enzymatic activity in plasma and by biologic response (blood pressure)
[4] = system: Angiotensin II; assay: enzymatic activity of ACE2 truncates; format: biochemical
[5] = system: Angiotensin II; settings: as disclosed in U.S. Pat. No. 10,443,049; cited from earlier work
[6] = system: hTCEpi cells; assay: RT-qPCR of inflammation-related genes in siACE2-transfected hTCEpi cells treated with losartan; format: cell-based; settings: 100 μM losartan, 24 hours
Procedure: To examine if ACE2 deficiency-induced cytokine production is due to an increase in AngII activity, we investigated whether treatment of corneal epithelial cells with the AngII type 1 receptor (AT1R) antagonist, losartan could rescue the phenotype. hTCEpi deficient in ACE2 were treated with 100 μm losartan for 24 hrs and the cytokine response was evaluated.
Immortalized corneal epithelial cells, hTCEpi, were cultured in keratinocyte serum free media (Thermo Fisher Scientific, Waltham, Mass., USA) as described before^39. For siRNA knock-down experiments, cells were transfected with 10 nM siRNA SMARTpools against ACE2 and non-target control (GE Dharmacon, Colorado, USA) as previously described^37. Two days after transfection, cells were treated with losartan (100 μM) for 24 hours, and processed for total RNA isolation.
Total RNAs were isolated from hTCEpi cells and purified with a miRNeasy kit (Qiagen, Hilden, Germany). Real-time qPCR (RT-qPCR) was performed with a Roche LightCycler 96 System using the Roche FastStart Essential DNA Green Master (Roche, Branchburg, N.J., USA) according to the manufacturer's instructions.
Unpaired t-test were performed to determine statistical significance. The data are shown as means±standard deviation (SD). The differences were considered significant for p values of <0.05. All experiments were replicated at least three times.

## ACE2 1-618ABD: human ACE2 amino acids 1-618 fused to albumin binding domain (ABDCon) via a GS4 linker
[1]
  ACE2 staining by immunofluorescence in the cornea: Appearance of ACE2 staining
[2]; 5 μg/μl in 0.5% DMSO in PBS vs in PBS
  effect of DMSO on detectable ACE2 activity in eyes: enhance detectable ACE2 activity
[2]
  ACE2 activity in eyes: Detectable ACE2 activity was observed
[2]; listed as hr ACE2 1-618ABD
  ACE2 activity in eyes: Recovery of ACE2 activity
[3]
  duration of action of one injection: at least 4 days

## 1-605: ACE2 truncate, amino acids 1-605, C-terminal deletion relative to SEQ ID NO:1 [Group 1-605]
[4]
  enzyme activity of ACE2 truncate: enzymatically active
[5]
  enzymatic activity of ACE2 fragment: very high enzymatic activity

## CCCCc1nc(Cl)c(CO)n1Cc1ccc(-c2ccccc2-c2nn[nH]n2)cc1 [losartan]
[6]
  pro-inflammatory activity / cytokine storm-like phenotype in ACE2 depleted corneal epithelial cells: partially rescued
[6]; RT-qPCR
  expression of CCL2: decreased; also recorded: significantly blocked
  expression of CXCL8: only slightly altered
  expression of IL1B: only slightly altered
  expression of ILIA: decreased; also recorded: significantly blocked
  expression of TNFA: decreased; also recorded: significantly blocked
[6]; listed as Losartan
  pro-inflammatory activity / cytokine storm-like phenotype in ACE2 depleted corneal epithelial cells: partially reverse

## 1-522: ACE2 truncate, amino acids 1-522, not enzymatically active [Group 1-522]
[4]
  enzyme activity of ACE2 truncate: not active

## 1-619: ACE2 truncate, amino acids 1-619, C-terminal deletion relative to SEQ ID NO:1 [Group 1-619]
[4]
  enzyme activity of ACE2 truncate: enzymatically active
[5]
  enzymatic activity of ACE2 fragment: very high enzymatic activity

## 1-618: ACE2 truncate, human ACE2 amino acids 1-618 [Group 1-618]
[4]
  enzyme activity of ACE2 truncate: enzymatically active
